Legend:
[1] = molecular target: T1, δ^1-pyrroline-5-carboxylate reductase (MtP5CR) (Medicago truncatula, UniProt G7KRM5); assay: X-ray crystal structure of the cocrystallized complex ([…] Å); assay type: binding
T1 construct: gene MTR_7g090160; MtP5CR_1, His6-tag cleaved; homodecamer

[2] = molecular target: T1, δ^1-pyrroline-5-carboxylate reductase (MtP5CR); assay: NAD(P)H oxidation assay at […] nm, kinetic analysis of inhibition; assay type: biochemical
[3] = substrate: O=C(O)C1CCC=N1; assay: steady-state kinetics of the purified enzyme, KM(app); assay type: biochemical, Medicago truncatula; conditions: NADPH C-terminal domain contains the P5C binding site
[4] = molecular target: the molecule itself; assay: crystal structure; space group P1, one decamer in the asymmetric unit; 100 mM HEPES/MOPS pH 7.5, 10% PEG 4000, 20% glycerol, 30 mM MgCl2, 30 mM CaCl2, 19°C; unliganded and with NAD+, NADP+ or L-proline
[5] = substrate: NC(=O)C1=CN([C@@H]2O[C@H](COP(=O)(O)OP(=O)(O)OC[C@H]3O[C@@H](n4cnc5c(N)ncnc54)[C@H](O)[C@@H]3O)[C@@H](O)[C@H]2O)C=CC1; assay: purified protein; conditions: varied: cofactor
[6] = substrate: NC(=O)C1=CN([C@@H]2O[C@H](COP(=O)(O)OP(=O)(O)OC[C@H]3O[C@@H](n4cnc5c(N)ncnc54)[C@H](OP(=O)(O)O)[C@@H]3O)[C@@H](O)[C@H]2O)C=CC1; assay: purified protein; conditions: varied: cofactor

With `NC(=O)c1ccc[n+]([C@@H]2O[C@H](COP(=O)([O-])OP(=O)(O)OC[C@H]3O[C@@H](n4cnc5c(N)ncnc54)[C@H](O)[C@@H]3O)[C@@H](O)[C@H]2O)c1` [NAD^+] the “X-ray crystal structure of the cocrystallized complex (1.85 Å)” value [1] was “In the case of NAD^+ (Figure 8A), the adenine N1 atom interacts with Nδ of Asn65”.

In the case of `O=S(=O)(O)CCN1CCN(CCO)CC1` [HEPES, 2-[4-(2-hydroxyethyl)piperazin-1-yl]ethanesulfonic acid], the Ki [2] is reported as 1.83 ± 0.08 mM.

B1: Medicago truncatula δ1-pyrroline-5-carboxylate reductase (enzyme, UniProt G7KRM5 1-274, looked up)
chain: MEIIPIPADSYTLGFIGAGKMAESIAKGAVRSGVLSPSRIKTAIHSNPARRTAFESIGITVLSSNDDVVRDSNVVVFSVKPQLLKDVVLKLKPLLTKDKLLVSVAAGIKMKDLQEWAGHERFIRVMPNTAATVGEAASVMSLGGAATEEDANLISQLFGSIGKIWKADDKYFDAITGLSGSGPAYIYLAIEALADGGVAAGLPRDLALSLASQTVLGAASMATQSGKHPGQLKDDVTSPGGTTIAGVHELEKAGFRGILMNAVVAAAKRSQELS
notes: P5C reductase (EC 1.5.1.2) of Medicago truncatula, isoform MtP5CR_1 (without the 29-residue insert of MtP5CR_2, A2Q2Y7); cDNA from leaf RNA; printed primers run from the ATG to the stop codon; monomer 28.5 kDa; Vector pMCSG68: His6 tag and TEV site at the N-terminus, cut off with TEV protease; Homodecamer (pentamer of dimers); also called MtP5CR; MtP5CR_1; source: E. coli BL21 Gold, purified …
In the case of B1, the Km [3] is reported as 20 ± 2 µM, the “stoichiometry N” value [4] is reported as 10 and the Km [5] is reported as 468 ± 22 µM. The Vmax [5] was 92.4 ± 2.1 μkat (mg protein)^−1, the kcat [5] was 2972 s⁻¹ and the kcat/Km [5] was 6.35e+06 M⁻¹ s⁻¹. For the same molecule, the Km [6] was 39 ± 3 µM, the Vmax [6] was 36.1 ± 0.7 μkat (mg protein)^−1 and the kcat [6] was 1113 s⁻¹. For the same molecule, the kcat/Km [6] was 2.85e+07 M⁻¹ s⁻¹.

— publication PMC4626632, “The structure of Medicago truncatula δ^1-pyrroline-5-carboxylate reductase provides new insights into regulation of proline biosynthesis in plants” (Frontiers in Plant Science, 2015)
